Changes are numbered by the printed parent chain. Numbers in names are those of the source.
T1: human soluble ULBP2 (hULBP2) (human, UniProt Q9BZM5 26-216)
T1 construct: also called sULBP2
T1 sequence: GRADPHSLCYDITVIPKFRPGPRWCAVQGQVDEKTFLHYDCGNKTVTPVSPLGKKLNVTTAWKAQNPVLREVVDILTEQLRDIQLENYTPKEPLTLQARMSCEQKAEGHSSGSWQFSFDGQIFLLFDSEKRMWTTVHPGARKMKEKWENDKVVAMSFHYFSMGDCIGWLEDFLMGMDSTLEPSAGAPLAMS

T2: cynomolgus soluble ULBP5 (cULBP5) (cynomolgus)
T2 construct: also called Cyno-cULBP5
T2 chain: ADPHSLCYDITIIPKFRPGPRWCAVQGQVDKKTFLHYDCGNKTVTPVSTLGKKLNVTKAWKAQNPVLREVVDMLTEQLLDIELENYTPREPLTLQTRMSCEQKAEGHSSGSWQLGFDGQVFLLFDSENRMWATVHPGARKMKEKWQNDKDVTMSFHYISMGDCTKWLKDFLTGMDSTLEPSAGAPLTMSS

T3: human soluble ULBP5 (hULBP5) (human, UniProt Q6H3X3 26-218)
T3 construct: also called sULBP5
T3 sequence: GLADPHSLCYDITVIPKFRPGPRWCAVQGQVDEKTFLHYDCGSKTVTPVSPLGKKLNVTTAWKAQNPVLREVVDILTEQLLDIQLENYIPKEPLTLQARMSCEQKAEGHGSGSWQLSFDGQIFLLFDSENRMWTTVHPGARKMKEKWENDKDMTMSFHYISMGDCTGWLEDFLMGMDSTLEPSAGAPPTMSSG

T4: cynomolgus soluble ULBP2/6 (cULBP2/6) (cynomolgus, UniProt Q5VY80 28-217 (human entry), limits assumed)
T4 construct: also called cyno ULBP6; Cyno-cULBP2/6
T4 chain: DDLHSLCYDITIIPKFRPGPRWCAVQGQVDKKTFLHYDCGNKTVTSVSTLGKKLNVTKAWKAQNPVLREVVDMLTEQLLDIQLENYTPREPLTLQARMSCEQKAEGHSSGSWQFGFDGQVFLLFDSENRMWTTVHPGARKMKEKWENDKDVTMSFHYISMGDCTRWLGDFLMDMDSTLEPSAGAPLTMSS

T5: cell surface ULBP6_02 on PANC02.13 cells (human, UniProt Q5VY80 26-218)
T5 construct: whole, on cells; also called cell surface ULBP6 (PANC02.13)
T5 chain: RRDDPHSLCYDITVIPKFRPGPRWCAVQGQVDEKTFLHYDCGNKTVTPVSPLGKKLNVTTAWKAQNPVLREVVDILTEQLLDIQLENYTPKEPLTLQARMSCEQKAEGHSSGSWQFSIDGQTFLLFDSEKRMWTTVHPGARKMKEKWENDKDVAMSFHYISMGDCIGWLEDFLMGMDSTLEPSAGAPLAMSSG

T6: human ULBP6 displayed on M13 phage (ULBP6-HA-pIII) (human, UniProt Q5VY80 26-218)
T6 construct: also called ULBP6 phage; not shown: M13 minor coat protein pIII
T6 sequence: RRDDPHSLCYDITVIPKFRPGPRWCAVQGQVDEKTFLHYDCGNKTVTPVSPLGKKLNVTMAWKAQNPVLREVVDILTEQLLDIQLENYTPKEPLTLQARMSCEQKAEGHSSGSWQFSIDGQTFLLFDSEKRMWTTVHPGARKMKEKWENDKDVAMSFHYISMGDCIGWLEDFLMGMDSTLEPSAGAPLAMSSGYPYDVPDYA

T7: cell surface ULBP6_01 on COV644 cells (human, UniProt Q5VY80 27-218)
T7 construct: whole, on cells; also called cell surface ULBP6 (COV644)
T7 chain: T5 chain with R1G, L81R, T122I

T8: NKG2D on cells (NKG2D expressing cells, primed PBMCs) (UniProt P26718 1-216)
T8 construct: whole, on cells; also called cell surface NKG2D
T8 sequence (looked up): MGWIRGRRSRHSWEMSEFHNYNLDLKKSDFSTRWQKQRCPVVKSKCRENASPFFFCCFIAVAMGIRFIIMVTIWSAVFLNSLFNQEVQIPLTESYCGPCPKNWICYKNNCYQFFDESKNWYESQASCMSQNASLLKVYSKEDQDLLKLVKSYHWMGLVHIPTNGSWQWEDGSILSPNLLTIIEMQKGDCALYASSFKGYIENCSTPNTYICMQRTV

B1: Humanized 8E11 (h8E11) (E-) (antibody, human IgG1, kappa, N297G, V domains shown)
VH: EVQLVESGGGLVQPGGSLRLSCAASGFTFRTYGMHWVRQAPGKGLEWVAYISSGSGTIDYADTVKGRFTISRDNAKNSLYLQMNSLRAEDTAVYYCTRQTGAMDYWGQGTLVTVSS
VL: EIVLTQSPATLSLSPGERATLSCSASSSVSYMNWYQQKPGQSPRLWIYGISNLASGVPARFSGSGSGTDFTLTISSLEPEDFAVYYCQQRSSHPLTFGGGTKVEIKR
notes: hIgG1 with N297G (effector negative)
B2: 8E11 (mouse hybridoma clone) (antibody, V domains shown)
VH: B1 VH with E1D, L18R, R19K, G42E, S78T, Y80F, N84T, A88S, V93M, L111S
VL: EILLTQSPAIIAASPGEKVTITCSASSSVSYMNWYQQKPGSSPKLWIYGISNLASGVPARFSGSGSGTSFSFTINSMEAEDVATYYCQQRSSHPLTFGAGTKLELK
notes: Tested as hybridoma culture supernatant
B3: humanized 7B3 (h7B3), Fc version not stated (antibody, V domains shown)
VH: B1 VH with R30S, M34F, G54N, T97A, T100G, G101Y, A102G, M103F, Y105N, L111T
VL: DIQLTQSPSSLSASVGDRVTITCSASSRVSYMNWYQQKPGKSPKIWVYGISNLASGVPSRFSGSGSGTDFTFTISSLQPEDIATYYCQQRSSHPLTFGGGTKVEIK
notes: Recombinant humanized antibody, hIgG1 backbone with kappa light chain; also called hu7B3; PUR3922
B4: Humanized 7B3 (h7B3) (E-) (antibody, human IgG1, kappa, N297G, V domains shown)
VH: B1 VH with R30S, M34F, G54N, T97A, T100G, G101Y, A102G, M103F, Y105N, L111T
VL: DIQLTQSPSSLSASVGDRVTITCSASSRVSYMNWYQQKPGKSPKIWVYGISNLASGVPSRFSGSGSGTDFTFTISSLQPEDIATYYCQQRSSHPLTFGGGTKVEIKR
notes: as for B1
B5: human soluble ULBP6 haplotype 02 (hULBP6_02) (ligand)
chain: T5 chain
notes: also called sULBP6_02
B6: human soluble ULBP6 haplotype 01 (hULBP6_01) (ligand)
chain: T5 chain with R1G, L81R, T122I
notes: also called sULBP6_01
B7: 7B3 (mouse hybridoma clone) (antibody, V domains shown)
VH: DVQLVESGGGLVKPGGSRKLSCAASGFTFSTYGFHWVRQVPEKGLEWVAYISSNSGTIDYADTVKGRFTISRDNAKNTLFLQMTSLRSEDTAMYYCARQGYGFDNWGQGTTLTVSS
VL: B2 VL with S28R, L45I, I47V
notes: Tested as hybridoma culture supernatant; also called mAb 7B3

Legend:
[1] = molecular target: B6; test: blocking ELISA; hNKG2D coated, antibody titrated with biotinylated hULBP6_01; hNKG2D-hULBP6_01 interaction; value of the running text
[2] = molecular target: B5; test: cell-based or functional assay
[3] = molecular target: B5; test: blocking ELISA; hNKG2D coated, antibody titrated with biotinylated hULBP6_02
[4] = molecular target: B6; test: blocking ELISA; hNKG2D coated, antibody titrated with biotinylated hULBP6_01
[5] = molecular target: B5; test: blocking ELISA; hNKG2D coated, antibody titrated with biotinylated hULBP6_02; hNKG2D-hULBP6_02 interaction; value of the running text
[6] = molecular target: B5; test: SPR (BIACORE);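 also: soluble human and cynomolgus NKG2D ligands injected as analytes in 3-fold dilution series spanning 0.01 to 50 nM at 37 °C, reference-subtracted sensorgrams fitted to a 1:1 Langmuir model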
[7] = molecular target: T1, human soluble ULBP2 (hULBP2); test: SPR (BIACORE);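 also: soluble human and cynomolgus NKG2D ligands injected as analytes in 3-fold dilution series spanning 0.01 to 50 nM at 37 °C, reference-subtracted sensorgrams fitted to a 1:1 Langmuir model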
[8] = molecular target: B6; test: SPR (BIACORE);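 also: soluble human and cynomolgus NKG2D ligands injected as analytes in 3-fold dilution series spanning 0.01 to 50 nM at 37 °C, reference-subtracted sensorgrams fitted to a 1:1 Langmuir model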
[9] = molecular target: T2, cynomolgus soluble ULBP5 (cULBP5); test: SPR (BIACORE);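 also: soluble human and cynomolgus NKG2D ligands injected as analytes in 3-fold dilution series spanning 0.01 to 50 nM at 37 °C, reference-subtracted sensorgrams fitted to a 1:1 Langmuir model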
[10] = molecular target: T3, human soluble ULBP5 (hULBP5); test: SPR (BIACORE)
[11] = molecular target: T4, cynomolgus soluble ULBP2/6 (cULBP2/6); test: SPR (BIACORE)
[12] = molecular target: T4, cynomolgus soluble ULBP2/6 (cULBP2/6); test: BLI (OCTET), mouse antibody captured from hybridoma supernatant on AMC biosensor, 300 nM cULBP2/6
[13] = molecular target: B5; test: SPR (BIACORE 8K, 37 C); antibody captured on Protein A, soluble ULBP injected;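 also: ligand injected as threefold dilution series in HBS-P (highest 10 or 50 nM), reference-cell and buffer-subtracted sensorgrams fitted with a 1:1 Langmuir model for on and off rates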
[14] = molecular target: T1, human soluble ULBP2 (hULBP2); test: as above
[15] = molecular target: B6; test: as above
[16] = molecular target: T2, cynomolgus soluble ULBP5 (cULBP5); test: as above
[17] = molecular target: T4, cynomolgus soluble ULBP2/6 (cULBP2/6); test: as above
[18] = molecular target: T5, cell surface ULBP6_02 on PANC02.13 cells; test: flow cytometry on PANC02.13 cells, anti-hFc-APC detection, average of 2 replicates
[19] = molecular target: T6, human ULBP6 displayed on M13 phage …; test: phage ELISA: plate coated with the antibody, ULBP6 phage titrated in 3-fold steps from 1.0 O.D./mL, HRP anti-M13 detection, O.D. 450
[20] = molecular target: T7, cell surface ULBP6_01 on COV644 cells; test: flow cytometry; blocking of hNKG2D-mFc binding to COV644 cells, average of 2 replicates
[21] = molecular target: B5; test: cell-based or functional assay
[22] = molecular target: T7, cell surface ULBP6_01 on COV644 cells; test: flow cytometry on COV644 cells, anti-hFc-APC detection, average of 2 replicates
[23] = molecular target: T8, NKG2D on cells (NKG2D expressing cells, …); test: competition with anti-NKG2D mAb on NKG2D expressing cells (data not shown)
[24] = molecular target: hNKG2D-Fc (human NKG2D 78-216 with C-terminal long huFc-Flag tag) (human); test: SPR (BIACORE 8K, 37 C); hNKG2D-Fc captured on Protein A, soluble ligand injected
Sequence of hNKG2D-Fc (human NKG2D 78-216 with C-terminal long huFc-Flag tag) (human) (chain, as listed by the source limits assumed): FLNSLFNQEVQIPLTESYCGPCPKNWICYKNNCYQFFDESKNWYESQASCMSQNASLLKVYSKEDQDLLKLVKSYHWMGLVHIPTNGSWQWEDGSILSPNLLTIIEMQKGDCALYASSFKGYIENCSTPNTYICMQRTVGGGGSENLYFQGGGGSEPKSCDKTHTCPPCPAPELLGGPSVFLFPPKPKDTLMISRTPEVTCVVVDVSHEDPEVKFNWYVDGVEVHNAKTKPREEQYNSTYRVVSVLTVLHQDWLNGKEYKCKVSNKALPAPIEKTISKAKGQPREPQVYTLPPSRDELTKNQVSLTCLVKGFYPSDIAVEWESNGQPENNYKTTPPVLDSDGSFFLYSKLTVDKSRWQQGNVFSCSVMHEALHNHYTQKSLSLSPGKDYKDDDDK

Binder: B1
IC50 [1]: 4.32 nM
EC50 (read off the curve); NKG2D MFI on primed PBMCs of donor 1307 with 50 nM sULBP6_02 [2]: ~20 nM
IC50 [3]: 0.035 nM
IC50 [4]: 5.06 nM
IC50 [5]: 1.59 nM
Kd [6]: 0.28 nM
Kd [7]: 0.5 nM
Kd [8]: 0.27 nM
Kd [9]: 23.1 nM
Kd [10]: 1.76 nM
Kd [11]: 2.06 nM

Binder: B2
binding result [12]: binds

Binder: B3
EC50 (read off the curve); NKG2D MFI on primed PBMCs with 50 nM sULBP6_02 [2]: ~20 nM
Kd [13]: 0.255 nM
koff [13]: 0.000379 s⁻¹
kon [13]: 1.48e+06 M⁻¹ s⁻¹
Kd [14]: 0.673 nM
koff [14]: 0.000507 s⁻¹
kon [14]: 753000 M⁻¹ s⁻¹
Kd [15]: 0.263 nM
koff [15]: 0.000382 s⁻¹
kon [15]: 1.45e+06 M⁻¹ s⁻¹
Kd [16]: 6.13 nM
koff [16]: 0.0034 s⁻¹
kon [16]: 554000 M⁻¹ s⁻¹
Kd [17]: 0.377 nM
koff [17]: 0.000542 s⁻¹
kon [17]: 1.44e+06 M⁻¹ s⁻¹
EC50 [18]: 1.97 nM
EC50 (read off the curve) [19]: ~0.006 O.D. (phage)
IC50 [20]: 0.17 nM
EC50 (read off the curve); IFNg secretion of primed PBMCs on plate-bound MICA with 50 nM sULBP6_02 [21]: ~1 nM
EC50 [22]: 1.93 nM

Binder: B4
IC50 [1]: 4.47 nM
EC50 (read off the curve); NKG2D MFI on primed PBMCs of donor 1307 with 50 nM sULBP6_02 [2]: ~20 nM
IC50 [3]: 0.028 nM
IC50 [4]: 4.48 nM
IC50 [5]: 1.52 nM
Kd [6]: 0.2 nM
Kd [7]: 0.54 nM
Kd [8]: 0.22 nM
Kd [9]: 7.67 nM
Kd [10]: 2.39 nM
Kd [11]: 0.48 nM

Binder: B5
binding result [23]: binds
Kd [24]: 4.8 nM

Binder: B6
binding result [23]: binds
Kd [24]: 41 nM

Binder: B7
binding result [12]: binds

— patent US20250084172A1 (23ANDME, published 2025)
